Source: patent US20210147507A1, “METHODS TO AUGMENT OR ALTER SIGNAL TRANSDUCTION” (Bellicum Pharmaceuticals, Inc., priority 2017, published 2021)

System: chimeric Caspase-9 polypeptide
Test: Caspase-9 mutant classes and basal activity (Table 5)
Format: cell-based
Conditions: Caspase-9 mutant class; for Basal Activity: basal (ligand-independent) signaling compared with unmodified chimeric Caspase-9; for IC50: ligand IC50 compared with unmodified chimeric Caspase-9
Text: Even though homo-dimerization of wild-type initiator Caspase-9 is energetically unfavorable, making them mostly monomers in solution [14-16], the low-level inherent basal activity of unprocessed Caspase-9 [15, 17] is enhanced in the presence of the Apaf-1-based “apoptosome”, its natural allosteric regulator [6]. Moreover, supra-physiological expression levels and/or co-localization could lead to proximity-driven dimerization, further enhancing basal activation. The modified cells of the present application may comprise nucleic acids coding for a chimeric Caspase-9 polypeptide having lower basal signaling activity. Polynucleotides comprising Caspase-9 mutants with lower basal signaling may be expressed in the modified cells used for cell therapy herein. In these examples, the modified cells may include a safety switch, comprising a polynucleotide encoding a lower basal signaling chimeric Caspase-9 polypeptide. In the event of an adverse event following administration of the modified cells comprising the chimeric signaling polypeptides or chimeric antigen receptors herein, Caspase-9 activity may be induced by administering the dimerizer to the patient, thus inducing apoptosis and clearance of some, or all of the modified cells. In some examples, the amount of dimerizer administered may be determined as an amount designed to remove the highest amount, at least 80% or 90% of the modified cells. In other examples, the amount of dimerizer administered may be determined as an amount designed to remove only a portion of the modified cells, in order to alleviate negative symptoms or conditions, while leaving a sufficient amount of therapeutic modified cells in the patient, in order to continue therapy. Methods for using chimeric Caspase-9 polypeptides to induce apoptosis are discussed in PCT Application Number PCT/US2011/037381 by Malcolm K. Brenner et al., titled Methods for Inducing Selective Apoptosis, filed May 20, 2011, and in U.S. patent application Ser. No. 13/112,739 by Malcolm K. Brenner et al., titled Methods for Inducing Selective Apoptosis, filed May 20, 2011, issued Jul. 28, 2015 as U.S. Pat. No. 9,089,520. Chimeric caspase polypeptides having modified basal activity are discussed in PCT Application Serial Number PCT/US2014/022004 by David Spencer et al., titled Modified Caspase Polypeptides and Uses Thereof, filed Mar. 7, 2014, published Oct. 9, 2014 as WO2014/164348, and in U.S. patent application Ser. No. 13/792,135 by David Spencer et al., titled Modified Caspase Polypeptides and Uses Thereof, filed Mar. 7, 2014; and in U.S. patent application Ser. No. 14/640,553 by Spencer et al., filed Mar. 6, 2015. Methods for inducing partial apoptosis of the therapeutic modified cells are discussed in PCT Application Number PCT/US14/040964 by Kevin Slawin et al., titled Methods for Inducing Partial Apoptosis Using Caspase Polypeptides, filed Jun. 4, 2014, published Dec. 11, 2014 as WO2014/197638, and in U.S. patent application Ser. No. 14/296,404 by Kevin Slawin et al., titled Methods for Inducing Partial Apoptosis Using Caspase Polypeptides, filed Jun. 4, 2014. These patent applications and publications are all incorporated by reference herein in their entireties.

Chain of chimeric Caspase-9 polypeptide (P62942 2-108 F37V limits assumed): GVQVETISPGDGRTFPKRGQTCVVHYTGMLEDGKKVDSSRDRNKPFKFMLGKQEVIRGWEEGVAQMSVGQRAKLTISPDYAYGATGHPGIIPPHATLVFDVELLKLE

Basal Activity | IC50 | Molecule
Similar | Similar | 316ATPF^319AVPI (SMAC/Diablo) (protein, UniProt P55211 1-416, looked up, variant T317V F319I) MDEADRRLLRRCRLRLVEELQVDQLWDALLSRELFRPHMIEDIQRAGSGSRRDQARQLIIDLETRGSQALPLFISCLEDTGQDMLASFLRTNRQAAKLSKPTLENLTPVVLRPEIRKPEVLRPETPRPVDIGSGGFGDVGALESLRGNADLAYILSMEPCGHCLIINNVNFCRESGLRTRTGSNIDCEKLRRRFSSLHFMVEVKGDLTAKKMVLALLELAQQDHGALDCCVVVILSHGCQASHLQFPGAVYGTDGCPVSVEKIVNIFNGTSCPSLGGKPKLFFIQACGGEQKDHGFEVASTSPEDESPGSNPEPDAVPIQEGLRTFDQLDAISSLPTPSDIFVSYSTFPGFVSWRDPKSGSWYVETLDDIFEQWAHSEDLQSLLLRVANAVSVKGIYKQMPGCFNFLRKKLFFKTS
Similar | Similar | T317C (protein) GFGDVGALESLRGNADLAYILSMEPCGHCLIINNVNFCRESGLRTRTGSNIDCEKLRRRFSSLHFMVEVKGDLTAKKMVLALLELARQDHGALDCCVVVILSHGCQASHLQFPGAVYGTDGCPVSVEKIVNIFNGTSCPSLGGKPKLFFIQACGGEQKDHGFEVASTSPEDESPGSNPEPDACPFQEGLRTFDQLDAISSLPTPSDIFVSYSTFPGFVSWRDPKSGSWYVETLDDIFEQWAHSEDLQSLLLRVANAVSVKGIYKQMPGCFNFLRKKLFFKTSASRA
Increased |  | L329K (protein) GFGDVGALESLRGNADLAYILSMEPCGHCLIINNVNFCRESGLRTRTGSNIDCEKLRRRFSSLHFMVEVKGDLTAKKMVLALLELARQDHGALDCCVVVILSHGCQASHLQFPGAVYGTDGCPVSVEKIVNIFNGTSCPSLGGKPKLFFIQACGGEQKDHGFEVASTSPEDESPGSNPEPDATPFQEGLRTFDQKDAISSLPTPSDIFVSYSTFPGFVSWRDPKSGSWYVETLDDIFEQWAHSEDLQSLLLRVANAVSVKGIYKQMPGCFNFLRKKLFFKTSASRA
Increased |  | D330A-N405T (protein) GFGDVGALESLRGNADLAYILSMEPCGHCLIINNVNFCRESGLRTRTGSNIDCEKLRRRFSSLHFMVEVKGDLTAKKMVLALLELARQDHGALDCCVVVILSHGCQASHLQFPGAVYGTDGCPVSVEKIVNIFNGTSCPSLGGKPKLFFIQACGGEQKDHGFEVASTSPEDESPGSNPEPDATPFQEGLRTFDQLAAISSLPTPSDIFVSYSTFPGFVSWRDPKSGSWYVETLDDIFEQWAHSEDLQSLLLRVANAVSVKGIYKQMPGCFTFLRKKLFFKTSASRA
Similar | Similar | N405A (protein) GFGDVGALESLRGNADLAYILSMEPCGHCLIINNVNFCRESGLRTRTGSNIDCEKLRRRFSSLHFMVEVKGDLTAKKMVLALLELARQDHGALDCCVVVILSHGCQASHLQFPGAVYGTDGCPVSVEKIVNIFNGTSCPSLGGKPKLFFIQACGGEQKDHGFEVASTSPEDESPGSNPEPDATPFQEGLRTFDQLDAISSLPTPSDIFVSYSTFPGFVSWRDPKSGSWYVETLDDIFEQWAHSEDLQSLLLRVANAVSVKGIYKQMPGCFAFLRKKLFFKTSASRA
Similar | Similar | C403S (protein) GFGDVGALESLRGNADLAYILSMEPCGHCLIINNVNFCRESGLRTRTGSNIDCEKLRRRFSSLHFMVEVKGDLTAKKMVLALLELARQDHGALDCCVVVILSHGCQASHLQFPGAVYGTDGCPVSVEKIVNIFNGTSCPSLGGKPKLFFIQACGGEQKDHGFEVASTSPEDESPGSNPEPDATPFQEGLRTFDQLDAISSLPTPSDIFVSYSTFPGFVSWRDPKSGSWYVETLDDIFEQWAHSEDLQSLLLRVANAVSVKGIYKQMPGSFNFLRKKLFFKTSASRA
Similar | Similar | C403T (protein) GFGDVGALESLRGNADLAYILSMEPCGHCLIINNVNFCRESGLRTRTGSNIDCEKLRRRFSSLHFMVEVKGDLTAKKMVLALLELARQDHGALDCCVVVILSHGCQASHLQFPGAVYGTDGCPVSVEKIVNIFNGTSCPSLGGKPKLFFIQACGGEQKDHGFEVASTSPEDESPGSNPEPDATPFQEGLRTFDQLDAISSLPTPSDIFVSYSTFPGFVSWRDPKSGSWYVETLDDIFEQWAHSEDLQSLLLRVANAVSVKGIYKQMPGTFNFLRKKLFFKTSASRA
Increased |  | N405T (protein) GFGDVGALESLRGNADLAYILSMEPCGHCLIINNVNFCRESGLRTRTGSNIDCEKLRRRFSSLHFMVEVKGDLTAKKMVLALLELARQDHGALDCCVVVILSHGCQASHLQFPGAVYGTDGCPVSVEKIVNIFNGTSCPSLGGKPKLFFIQACGGEQKDHGFEVASTSPEDESPGSNPEPDATPFQEGLRTFDQLDAISSLPTPSDIFVSYSTFPGFVSWRDPKSGSWYVETLDDIFEQWAHSEDLQSLLLRVANAVSVKGIYKQMPGCFTFLRKKLFFKTSASRA
Increased |  | T317E (protein) GFGDVGALESLRGNADLAYILSMEPCGHCLIINNVNFCRESGLRTRTGSNIDCEKLRRRFSSLHFMVEVKGDLTAKKMVLALLELARQDHGALDCCVVVILSHGCQASHLQFPGAVYGTDGCPVSVEKIVNIFNGTSCPSLGGKPKLFFIQACGGEQKDHGFEVASTSPEDESPGSNPEPDAEPFQEGLRTFDQLDAISSLPTPSDIFVSYSTFPGFVSWRDPKSGSWYVETLDDIFEQWAHSEDLQSLLLRVANAVSVKGIYKQMPGCFNFLRKKLFFKTSASRA
Similar | Similar | P318A (protein) GFGDVGALESLRGNADLAYILSMEPCGHCLIINNVNFCRESGLRTRTGSNIDCEKLRRRFSSLHFMVEVKGDLTAKKMVLALLELARQDHGALDCCVVVILSHGCQASHLQFPGAVYGTDGCPVSVEKIVNIFNGTSCPSLGGKPKLFFIQACGGEQKDHGFEVASTSPEDESPGSNPEPDATAFQEGLRTFDQLDAISSLPTPSDIFVSYSTFPGFVSWRDPKSGSWYVETLDDIFEQWAHSEDLQSLLLRVANAVSVKGIYKQMPGCFNFLRKKLFFKTSASRA
Similar | Similar | F319A (protein) GFGDVGALESLRGNADLAYILSMEPCGHCLIINNVNFCRESGLRTRTGSNIDCEKLRRRFSSLHFMVEVKGDLTAKKMVLALLELARQDHGALDCCVVVILSHGCQASHLQFPGAVYGTDGCPVSVEKIVNIFNGTSCPSLGGKPKLFFIQACGGEQKDHGFEVASTSPEDESPGSNPEPDATPAQEGLRTFDQLDAISSLPTPSDIFVSYSTFPGFVSWRDPKSGSWYVETLDDIFEQWAHSEDLQSLLLRVANAVSVKGIYKQMPGCFNFLRKKLFFKTSASRA
Increased |  | A331K (protein) GFGDVGALESLRGNADLAYILSMEPCGHCLIINNVNFCRESGLRTRTGSNIDCEKLRRRFSSLHFMVEVKGDLTAKKMVLALLELARQDHGALDCCVVVILSHGCQASHLQFPGAVYGTDGCPVSVEKIVNIFNGTSCPSLGGKPKLFFIQACGGEQKDHGFEVASTSPEDESPGSNPEPDATPFQEGLRTFDQLDKISSLPTPSDIFVSYSTFPGFVSWRDPKSGSWYVETLDDIFEQWAHSEDLQSLLLRVANAVSVKGIYKQMPGCFNFLRKKLFFKTSASRA
